From publication PMC5366330, “The Activity of a Hexameric M17 Metallo-Aminopeptidase Is Associated With Survival of Mycobacterium tuberculosis” (Frontiers in Microbiology, 2017) come the findings set out here.

Series [1] deals with T1, MtLAP (leucine aminopeptidase of M. tuberculosis, Rv2213) (Mycobacterium tuberculosis, UniProt P9WHT3).
T1 construct: gene pepA
Briefly: biochemical.

For series [2], the system named is CSCC[C@H](N)C(=O)Nc1ccc2c(C)cc(=O)oc2c1. Briefly: purified protein. The settings on record: divalent metal (Ni2+, […] NiSO4 in the assay).
Series [3] deals with Cc1cc(=O)oc2cc(NC(=O)[C@@H](N)CC(C)C)ccc12. As to the kind of experiment: purified protein. The settings on record: divalent metal (Ni2+, […] NiSO4 in the assay).
Series [4] concerns Cc1cc(=O)oc2cc(NC(=O)[C@@H]3CCCN3)ccc12. As to the kind of experiment: purified protein. As to conditions: divalent metal (Ni2+, […] NiSO4 in the assay).
The series “AUC + SEC” concerns the molecule itself. As to the kind of experiment: AUC + SEC.

As a reminder, the IC50 is the concentration at which inhibition is half-maximal. Low readings indicate higher potency, high ones lower potency. In series [1], `CC(C)C[C@H](NC(=O)[C@@H](O)[C@H](N)Cc1ccccc1)C(=O)O` [bestatin] registered an IC50 of 53.8 nM. The term Km denotes the concentration of substrate that gives half-maximal velocity. Take “MtLAP (leucine aminopeptidase of M. tuberculosis, Rv2213) (Mycobacterium tuberculosis H37Rv)”: the Km in series [2] came out at 61.8 ± 4.4 µM; in series [3] it was 69.4 ± 3.6 µM; in series [4], 344.8 ± 49.2 µM.

B1: leucine aminopeptidase of M. tuberculosis (MtLAP) (enzyme)
chain: MTTEPGYLSPSVAVATSMPKRGVGAAVLIVPVVSTGEEDRPGAVVASAEPFLRADTVAEIEAGLRALDATGASDQVHRLAVPSLPVGSVLTVGLGKPRREWPADTIRCAAGVAARALNSSEAVITTLAELPGDGICSATVEGLILGSYRFSAFRSDKTAPKDAGLRKITVLCCAKDAKKRALHGAAVATAVATARDLVNTPPSHLFPAEFAKRAKTLSESVGLDVEVIDEKALKKAGYGGVIGVGQGSSRPPRLVRLIHRGSRLAKNPQKAKKVALVGKGITFDTGGISIKPAASMHHMTSDMGGAAAVIATVTLAARLRLPIDVIATVPMAENMPSATAQRPGDVLTQYGGTTVEVLNTDAEGRLILADAIVRACEDKPDYLIETSTLTGAQTVALGTRIPGVMGSDEFRDRVAAISQRVGENGWPMPLPDDLKDDLKSTVADLANVSGQRFAGMLVAGVFLREFVAESVDWAHIDVAGPAYNTGSAWGYTPKGATGVPTRTMFAVLEDIAKNG
notes: also called M. tuberculosis LAP; Rv2213
What is called stoichiometry N is the number of molecules, sites or subunits per partner or assembly. Regarding B1, in “AUC + SEC”, the “stoichiometry N” value amounted to 6.
